IntAct's records for PubMed 25910212

B1: Caspase-10 (Homo sapiens), Q92851-4 (parent)
chain: MKSQGQHWYSSSDKNCKVSFREKLLIIDSNLGVQDVENLKFLCIGLVPNKKLEKSSSASDVFEHLLAEDLLSEEDPFFLAELLYIIRQKKLLQHLNCTKEEVERLLPTRQRVSLFRNLLYELSEGIDSENLKDMIFLLKDSLPKTEMTSLSFLAFLEKQGKIDEDNLTCLEDLCKTVVPKLLRNIEKYKREKAIQIVTPPVDKEAESYQGEEELVSQTDVKTFLEALPQESWQNKHAGSNGNRATNGAPSLVSRGMQGASANTLNSETSTKRAAVYRMNRNHRGLCVIVNNHSFTSLKDRQGTHKDAEILSHVFQWLGFTVHIHNNVTKVEMEMVLQKQKCNPAHADGDCFVFCILTHGRFGAVYSSDEALIPIREIMSHFTALQCPRLAEKPKLFFIQACQGEEIQPSVSIEADALNPEQAPTSLQDSIPAEADFLLGLATVPGYVSFRHVEEGSWYIQSLCNHLKKLVPRHEDILSILTAVNDDVSRRVDKQGTKKQMPQPAFTLRKKLVFPVPLDALSL
B2: Fructose-1,6-bisphosphatase 1 (Homo sapiens), P09467 (parent)
chain: MADQAPFDTDVNTLTRFVMEEGRKARGTGELTQLLNSLCTAVKAISSAVRKAGIAHLYGIAGSTNVTGDQVKKLDVLSNDLVMNMLKSSFATCVLVSEEDKHAIIVEPEKRGKYVVCFDPLDGSSNIDCLVSVGTIFGIYRKKSTDEPSEKDALQPGRNLVAAGYALYGSATMLVLAMDCGVNCFMLDPAIGEFILVDKDVKIKKKGKIYSLNEGYARDFDPAVTEYIQRKKFPPDNSAPYGARYVGSMVADVHRTLVYGGIFLYPANKKSPNGKLRLLYECNPMAYVMEKAGGMATTGKEAVLDVIPTDIHQRAPVILGSPDDVLEFLKVYEKHSAQ
partner: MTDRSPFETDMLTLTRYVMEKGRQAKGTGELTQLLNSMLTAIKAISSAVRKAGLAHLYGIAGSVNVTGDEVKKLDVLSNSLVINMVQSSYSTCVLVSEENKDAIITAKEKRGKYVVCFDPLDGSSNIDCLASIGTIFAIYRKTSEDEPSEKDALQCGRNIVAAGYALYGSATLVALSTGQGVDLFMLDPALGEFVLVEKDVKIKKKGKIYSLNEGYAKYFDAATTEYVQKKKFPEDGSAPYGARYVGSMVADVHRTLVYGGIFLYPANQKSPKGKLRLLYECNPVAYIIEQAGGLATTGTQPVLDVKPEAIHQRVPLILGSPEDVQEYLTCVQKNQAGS
B3: U4/U6 small nuclear ribonucleoprotein Prp31 (Homo sapiens), Q8WWY3 (parent)
chain: MSLADELLADLEEAAEEEEGGSYGEEEEEPAIEDVQEETQLDLSGDSVKTIAKLWDSKMFAEIMMKIEEYISKQAKASEVMGPVEAAPEYRVIVDANNLTVEIENELNIIHKFIRDKYSKRFPELESLVPNALDYIRTVKELGNSLDKCKNNENLQQILTNATIMVVSVTASTTQGQQLSEEELERLEEACDMALELNASKHRIYEYVESRMSFIAPNLSIIIGASTAAKIMGVAGGLTNLSKMPACNIMLLGAQRKTLSGFSSTSVLPHTGYIYHSDIVQSLPPDLRRKAARLVAAKCTLAARVDSFHESTEGKVGYELKDEIERKFDKWQEPPPVKQVKPLPAPLDGQRKKRGGRRYRKMKERLGLTEIRKQANRMSFGEIEEDAYQEDLGFSLGHLGKSGSGRVRQTQVNEATKARISKTLQRTLQKQSVVYGGKSTIRDRSSGTASSVAFTPLQGLEIVNPQAAEKKVAEANQKYFSSMAEFLKVKGEKSGLMST
partner: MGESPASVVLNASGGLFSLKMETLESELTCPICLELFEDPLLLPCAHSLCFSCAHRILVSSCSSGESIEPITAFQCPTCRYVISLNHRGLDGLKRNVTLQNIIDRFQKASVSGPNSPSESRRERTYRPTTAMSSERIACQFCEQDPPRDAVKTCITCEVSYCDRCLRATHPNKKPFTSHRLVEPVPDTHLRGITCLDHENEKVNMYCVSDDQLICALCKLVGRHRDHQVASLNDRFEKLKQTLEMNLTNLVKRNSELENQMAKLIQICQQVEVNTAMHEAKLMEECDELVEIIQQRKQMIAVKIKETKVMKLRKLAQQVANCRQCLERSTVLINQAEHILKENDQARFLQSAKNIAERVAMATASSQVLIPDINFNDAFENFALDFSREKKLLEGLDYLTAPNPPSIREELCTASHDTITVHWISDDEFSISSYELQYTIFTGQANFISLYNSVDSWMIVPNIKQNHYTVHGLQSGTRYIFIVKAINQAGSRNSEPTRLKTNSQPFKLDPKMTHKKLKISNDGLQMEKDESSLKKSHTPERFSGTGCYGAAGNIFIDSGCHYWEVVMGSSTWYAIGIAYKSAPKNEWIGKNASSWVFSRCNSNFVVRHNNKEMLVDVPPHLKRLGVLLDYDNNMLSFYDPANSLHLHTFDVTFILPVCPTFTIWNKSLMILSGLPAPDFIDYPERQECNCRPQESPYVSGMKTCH
B4: ATP synthase mitochondrial F1 complex assembly factor 2 (Homo sapiens), Q8N5M1 (parent)
chain: MWRSCLRLRDGGRRLLNRPAGGPSASMSPGPTIPSPARAYAPPTERKRFYQNVSITQGEGGFEINLDHRKLKTPQAKLFTVPSEALAIAVATEWDSQQDTIKYYTMHLTTLCNTSLDNPTQRNKDQLIRAAVKFLDTDTICYRVEEPETLVELQRNEWDPIIEWAEKRYGVEISSSTSIMGPSIPAKTREVLVSHLASYNTWALQGIEFVAAQLKSMVLTLGLIDLRLTVEQAVLLSRLEEEYQIQKWGNIEWAHDYELQELRARTAAGTLFIHLCSESTTVKHKLLKE
B5: Progranulin (Homo sapiens), P28799 (parent)
chain: MWTLVSWVALTAGLVAGTRCPDGQFCPVACCLDPGGASYSCCRPLLDKWPTTLSRHLGGPCQVDAHCSAGHSCIFTVSGTSSCCPFPEAVACGDGHHCCPRGFHCSADGRSCFQRSGNNSVGAIQCPDSQFECPDFSTCCVMVDGSWGCCPMPQASCCEDRVHCCPHGAFCDLVHTRCITPTGTHPLAKKLPAQRTNRAVALSSSVMCPDARSRCPDGSTCCELPSGKYGCCPMPNATCCSDHLHCCPQDTVCDLIQSKCLSKENATTDLLTKLPAHTVGDVKCDMEVSCPDGYTCCRLQSGAWGCCPFTQAVCCEDHIHCCPAGFTCDTQKGTCEQGPHQVPWMEKAPAHLSLPDPQALKRDVPCDNVSSCPSSDTCCQLTSGEWGCCPIPEAVCCSDHQHCCPQGYTCVAEGQCQRGSEIVAGLEKMPARRASLSHPRDIGCDQHTSCPVGQTCCPSLGGSWACCQLPHAVCCEDRQHCCPAGYTCNVKARSCEKEVVSAQPATFLARSPHVGVKDVECGEGHFCHDNQTCCRDNRQGWACCPYRQGVCCADRRHCCPAGFRCAARGTKCLRREAPRWDAPLRDPALRQLL
partner: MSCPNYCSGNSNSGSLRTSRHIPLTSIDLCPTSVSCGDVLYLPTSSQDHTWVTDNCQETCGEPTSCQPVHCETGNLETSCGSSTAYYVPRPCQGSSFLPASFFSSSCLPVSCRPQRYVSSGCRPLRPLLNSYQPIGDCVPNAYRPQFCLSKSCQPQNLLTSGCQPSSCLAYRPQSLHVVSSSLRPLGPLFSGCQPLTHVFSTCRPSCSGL
B6: ATP synthase mitochondrial F1 complex assembly factor 2 (Homo sapiens), Q8N5M1 (parent)
chain: B4 chain
partner: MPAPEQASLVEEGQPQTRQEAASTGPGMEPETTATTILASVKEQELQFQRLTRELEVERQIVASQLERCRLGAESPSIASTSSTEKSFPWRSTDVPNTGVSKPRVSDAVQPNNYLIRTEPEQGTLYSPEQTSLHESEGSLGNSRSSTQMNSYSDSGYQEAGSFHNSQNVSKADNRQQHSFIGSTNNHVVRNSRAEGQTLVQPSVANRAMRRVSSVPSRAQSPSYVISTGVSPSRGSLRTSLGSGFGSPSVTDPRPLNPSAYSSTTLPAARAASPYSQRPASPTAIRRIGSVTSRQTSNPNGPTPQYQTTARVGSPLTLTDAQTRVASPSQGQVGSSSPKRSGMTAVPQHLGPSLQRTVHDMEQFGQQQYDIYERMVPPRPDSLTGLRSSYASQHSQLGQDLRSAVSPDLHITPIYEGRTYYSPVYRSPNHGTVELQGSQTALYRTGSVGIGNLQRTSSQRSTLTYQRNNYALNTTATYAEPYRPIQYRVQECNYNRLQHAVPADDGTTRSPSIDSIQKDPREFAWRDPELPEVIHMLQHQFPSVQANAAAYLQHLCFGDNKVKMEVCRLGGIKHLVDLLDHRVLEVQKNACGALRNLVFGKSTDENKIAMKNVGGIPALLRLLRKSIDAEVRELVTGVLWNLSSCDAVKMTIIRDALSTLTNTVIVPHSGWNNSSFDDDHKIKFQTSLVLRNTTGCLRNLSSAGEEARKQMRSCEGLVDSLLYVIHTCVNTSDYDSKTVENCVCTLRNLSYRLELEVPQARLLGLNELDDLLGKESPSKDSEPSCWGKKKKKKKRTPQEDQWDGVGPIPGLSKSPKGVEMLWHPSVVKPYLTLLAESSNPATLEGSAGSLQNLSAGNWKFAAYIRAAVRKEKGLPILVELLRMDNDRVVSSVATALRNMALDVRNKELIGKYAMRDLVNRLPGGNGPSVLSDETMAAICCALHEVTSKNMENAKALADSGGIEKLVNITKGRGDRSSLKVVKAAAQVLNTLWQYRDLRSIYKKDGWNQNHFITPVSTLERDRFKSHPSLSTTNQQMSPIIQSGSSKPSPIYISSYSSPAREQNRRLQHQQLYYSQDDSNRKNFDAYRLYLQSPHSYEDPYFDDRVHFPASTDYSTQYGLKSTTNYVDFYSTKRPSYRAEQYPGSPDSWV
B7: Aspartoacylase (Homo sapiens), P45381 (parent)
chain: MTSCHIAEEHIQKVAIFGGTHGNELTGVFLVKHWLENGAEIQRTGLEVKPFITNPRAVKKCTRYIDCDLNRIFDLENLGKKMSEDLPYEVRRAQEINHLFGPKDSEDSYDIIFDLHNTTSNMGCTLILEDSRNNFLIQMFHYIKTSLAPLPCYVYLIEHPSLKYATTRSIAKYPVGIEVGPQPQGVLRADILDQMRKMIKHALDFIHHFNEGKEFPPCAIEVYKIIEKVDYPRDENGEIAAIIHPNLQDQDWKPLHPGDPMFLTLDGKTIPLGGDCTVYPVFVNEAAYYEKKEAFAKTTKLTLNAKSIRCCLH
partner: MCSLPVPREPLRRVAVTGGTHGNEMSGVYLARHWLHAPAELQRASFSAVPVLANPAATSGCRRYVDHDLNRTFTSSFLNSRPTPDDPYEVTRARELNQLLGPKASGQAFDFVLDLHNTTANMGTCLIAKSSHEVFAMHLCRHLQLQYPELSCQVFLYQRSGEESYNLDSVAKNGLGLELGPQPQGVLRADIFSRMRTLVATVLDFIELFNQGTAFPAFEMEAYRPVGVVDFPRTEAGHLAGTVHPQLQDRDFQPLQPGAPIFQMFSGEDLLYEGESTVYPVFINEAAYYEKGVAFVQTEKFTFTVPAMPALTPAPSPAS

Variants of: B1
Details: with xiap_human XIAP

effect of a mutation on the interaction	Variant
disrupting interaction strength	P501L

Variants of: B2
Details: with FBP2, O00757

effect of a mutation on the interaction	Variant
with no effect	G164S
with no effect	F194S
with no effect	G260R
with no effect	N213K

Variants of: B2
Details: with FBP2, O00757
Remark: another data set of the same source

effect of a mutation on the interaction	Variant
disrupting interaction strength	F194S
disrupting interaction strength	G260R
with no effect	F233I
with no effect	R218K

Variants of: B3
Details: with MID2, Q9UJV3-2

effect of a mutation on the interaction	Variant
with no effect	L107V

Variants of: B4
Details: with ikzf3_human IKZF3, Q9UKT9
Sequence of ikzf3_human IKZF3, Q9UKT9 (Q9UKT9 whole entry): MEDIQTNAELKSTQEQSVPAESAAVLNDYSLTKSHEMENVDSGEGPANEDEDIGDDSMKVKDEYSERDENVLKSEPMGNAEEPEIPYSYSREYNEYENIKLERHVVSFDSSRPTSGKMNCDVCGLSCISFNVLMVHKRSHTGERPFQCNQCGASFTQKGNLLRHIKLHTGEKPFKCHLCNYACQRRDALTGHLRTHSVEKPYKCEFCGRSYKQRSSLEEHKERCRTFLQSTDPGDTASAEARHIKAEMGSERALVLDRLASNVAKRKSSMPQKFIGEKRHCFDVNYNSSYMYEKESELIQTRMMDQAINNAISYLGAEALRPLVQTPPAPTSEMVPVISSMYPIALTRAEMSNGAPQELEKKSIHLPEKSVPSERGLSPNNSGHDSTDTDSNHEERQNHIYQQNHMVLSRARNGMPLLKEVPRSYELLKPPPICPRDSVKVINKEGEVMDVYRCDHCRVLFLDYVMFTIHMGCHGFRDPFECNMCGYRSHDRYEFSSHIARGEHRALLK

effect of a mutation on the interaction	Variant
disrupting interaction strength	W94R

Variants of: B4
Details: with pak5_human PAK5, Q9P286
Sequence of pak5_human PAK5, Q9P286 (Q9P286 whole entry, looked up): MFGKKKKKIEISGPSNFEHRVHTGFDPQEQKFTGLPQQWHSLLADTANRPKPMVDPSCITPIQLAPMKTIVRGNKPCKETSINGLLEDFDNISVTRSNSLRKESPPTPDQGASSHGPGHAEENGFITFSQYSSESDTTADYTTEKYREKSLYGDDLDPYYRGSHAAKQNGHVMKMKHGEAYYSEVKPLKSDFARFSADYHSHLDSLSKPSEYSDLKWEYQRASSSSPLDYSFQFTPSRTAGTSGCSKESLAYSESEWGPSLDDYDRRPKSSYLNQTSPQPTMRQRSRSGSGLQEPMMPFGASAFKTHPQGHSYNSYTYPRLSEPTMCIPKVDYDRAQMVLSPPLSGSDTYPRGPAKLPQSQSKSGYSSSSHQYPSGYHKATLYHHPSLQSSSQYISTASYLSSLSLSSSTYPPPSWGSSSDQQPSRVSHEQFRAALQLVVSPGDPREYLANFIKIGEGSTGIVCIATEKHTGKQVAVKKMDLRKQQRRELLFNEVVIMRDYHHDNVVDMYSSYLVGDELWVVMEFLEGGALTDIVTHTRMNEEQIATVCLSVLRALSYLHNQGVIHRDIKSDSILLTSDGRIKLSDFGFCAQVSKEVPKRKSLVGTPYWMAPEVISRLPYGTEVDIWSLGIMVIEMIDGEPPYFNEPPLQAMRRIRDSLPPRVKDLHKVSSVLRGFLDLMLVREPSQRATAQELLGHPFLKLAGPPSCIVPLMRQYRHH

effect of a mutation on the interaction	Variant
disrupting interaction strength	W94R

Variants of: B4
Details: with maga6_human MAGEA6, P43360
Sequence of maga6_human MAGEA6, P43360 (P43360 whole entry): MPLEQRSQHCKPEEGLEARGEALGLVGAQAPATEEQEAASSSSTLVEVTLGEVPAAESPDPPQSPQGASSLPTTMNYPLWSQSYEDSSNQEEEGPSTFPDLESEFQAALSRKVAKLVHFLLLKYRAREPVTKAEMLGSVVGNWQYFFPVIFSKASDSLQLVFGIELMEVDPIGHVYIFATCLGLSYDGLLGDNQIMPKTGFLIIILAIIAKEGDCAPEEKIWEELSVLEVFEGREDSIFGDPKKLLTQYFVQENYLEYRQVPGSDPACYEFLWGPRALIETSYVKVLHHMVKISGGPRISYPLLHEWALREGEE

effect of a mutation on the interaction	Variant
disrupting interaction strength	W94R

Variants of: B4
Details: with lzts2_human LZTS2, Q9BRK4
Sequence of lzts2_human LZTS2, Q9BRK4 (Q9BRK4 whole entry): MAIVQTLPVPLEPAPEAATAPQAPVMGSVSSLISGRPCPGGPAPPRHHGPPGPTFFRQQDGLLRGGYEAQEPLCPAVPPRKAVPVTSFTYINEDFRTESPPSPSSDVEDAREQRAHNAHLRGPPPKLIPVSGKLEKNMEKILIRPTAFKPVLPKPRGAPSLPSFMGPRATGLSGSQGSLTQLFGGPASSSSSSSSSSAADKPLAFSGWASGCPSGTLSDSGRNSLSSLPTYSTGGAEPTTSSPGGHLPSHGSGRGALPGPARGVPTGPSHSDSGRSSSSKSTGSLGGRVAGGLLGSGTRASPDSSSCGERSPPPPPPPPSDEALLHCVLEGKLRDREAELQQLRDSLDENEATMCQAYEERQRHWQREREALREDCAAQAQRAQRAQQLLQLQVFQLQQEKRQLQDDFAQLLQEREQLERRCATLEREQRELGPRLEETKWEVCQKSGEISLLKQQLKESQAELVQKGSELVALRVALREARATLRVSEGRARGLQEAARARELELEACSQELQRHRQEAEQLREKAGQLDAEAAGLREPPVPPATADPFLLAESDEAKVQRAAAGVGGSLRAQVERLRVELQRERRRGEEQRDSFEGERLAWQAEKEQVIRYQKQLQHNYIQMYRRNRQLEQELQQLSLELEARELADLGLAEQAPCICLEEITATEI

effect of a mutation on the interaction	Variant
disrupting interaction strength	W94R

Variants of: B4
Details: with KRT40, Q6A162
Sequence of KRT40, Q6A162 (Q6A162 whole entry): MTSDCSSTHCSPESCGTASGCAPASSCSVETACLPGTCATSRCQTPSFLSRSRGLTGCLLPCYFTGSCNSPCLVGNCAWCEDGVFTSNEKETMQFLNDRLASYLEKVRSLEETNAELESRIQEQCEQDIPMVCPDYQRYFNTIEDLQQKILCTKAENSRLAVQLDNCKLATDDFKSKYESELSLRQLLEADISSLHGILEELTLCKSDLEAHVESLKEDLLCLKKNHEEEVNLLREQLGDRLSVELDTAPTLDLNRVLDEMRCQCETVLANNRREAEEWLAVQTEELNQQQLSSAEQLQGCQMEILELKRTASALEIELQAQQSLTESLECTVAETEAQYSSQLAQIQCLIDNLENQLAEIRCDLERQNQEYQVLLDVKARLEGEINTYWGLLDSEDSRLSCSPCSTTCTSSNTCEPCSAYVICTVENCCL

effect of a mutation on the interaction	Variant
disrupting interaction strength	W94R

Variants of: B4
Details: with rpia_human RPIA

effect of a mutation on the interaction	Variant
disrupting interaction strength	W94R

Variants of: B4
Details: with ews_human EWSR1, Q01844
Sequence of ews_human EWSR1, Q01844 (Q01844 whole entry): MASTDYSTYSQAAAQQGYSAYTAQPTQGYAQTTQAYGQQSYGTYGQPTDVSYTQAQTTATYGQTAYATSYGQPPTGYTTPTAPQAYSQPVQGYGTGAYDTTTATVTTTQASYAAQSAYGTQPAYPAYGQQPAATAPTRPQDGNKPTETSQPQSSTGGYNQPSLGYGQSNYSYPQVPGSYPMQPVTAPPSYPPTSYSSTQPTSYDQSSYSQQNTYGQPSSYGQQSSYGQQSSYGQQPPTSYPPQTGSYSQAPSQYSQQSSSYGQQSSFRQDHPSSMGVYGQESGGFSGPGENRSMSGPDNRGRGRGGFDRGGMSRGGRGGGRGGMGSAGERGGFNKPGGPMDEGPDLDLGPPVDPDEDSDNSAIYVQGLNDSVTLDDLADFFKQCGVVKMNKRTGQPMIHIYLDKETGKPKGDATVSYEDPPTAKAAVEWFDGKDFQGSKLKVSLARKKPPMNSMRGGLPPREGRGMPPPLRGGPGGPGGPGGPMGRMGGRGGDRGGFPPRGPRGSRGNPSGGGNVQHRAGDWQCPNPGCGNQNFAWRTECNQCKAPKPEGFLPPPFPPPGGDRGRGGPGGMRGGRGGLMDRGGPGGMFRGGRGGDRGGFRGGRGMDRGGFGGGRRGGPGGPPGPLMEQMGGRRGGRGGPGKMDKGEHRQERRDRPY

effect of a mutation on the interaction	Variant
disrupting interaction strength	W94R

Variants of: B5
Details: with kr261_human KRTAP26-1, Q6PEX3

effect of a mutation on the interaction	Variant
with no effect	P248L
with no effect	P451L
disrupting interaction strength	A9D
disrupting interaction strength	R432C

Variants of: B6
Details: with PKP4, Q99569-2

effect of a mutation on the interaction	Variant
disrupting interaction strength	W94R

Variants of: B7
Details: with acy3_human ACY3, Q96HD9

effect of a mutation on the interaction	Variant
disrupting interaction strength	I143F

Variants of: B7
Details: with acy3_human ACY3, Q96HD9
Remark: another data set of the same source

effect of a mutation on the interaction	Variant
disrupting interaction strength	E24G
disrupting interaction strength	E285A
